Target: T1, GST-PIAS3 (UniProt Q9Y6X2 1-628)
T1 construct: PIAS3; also called bacterially expressed PIAS3; source: E. coli BL21, purified (Glutathione Agarose Resin)
T1 sequence (looked up): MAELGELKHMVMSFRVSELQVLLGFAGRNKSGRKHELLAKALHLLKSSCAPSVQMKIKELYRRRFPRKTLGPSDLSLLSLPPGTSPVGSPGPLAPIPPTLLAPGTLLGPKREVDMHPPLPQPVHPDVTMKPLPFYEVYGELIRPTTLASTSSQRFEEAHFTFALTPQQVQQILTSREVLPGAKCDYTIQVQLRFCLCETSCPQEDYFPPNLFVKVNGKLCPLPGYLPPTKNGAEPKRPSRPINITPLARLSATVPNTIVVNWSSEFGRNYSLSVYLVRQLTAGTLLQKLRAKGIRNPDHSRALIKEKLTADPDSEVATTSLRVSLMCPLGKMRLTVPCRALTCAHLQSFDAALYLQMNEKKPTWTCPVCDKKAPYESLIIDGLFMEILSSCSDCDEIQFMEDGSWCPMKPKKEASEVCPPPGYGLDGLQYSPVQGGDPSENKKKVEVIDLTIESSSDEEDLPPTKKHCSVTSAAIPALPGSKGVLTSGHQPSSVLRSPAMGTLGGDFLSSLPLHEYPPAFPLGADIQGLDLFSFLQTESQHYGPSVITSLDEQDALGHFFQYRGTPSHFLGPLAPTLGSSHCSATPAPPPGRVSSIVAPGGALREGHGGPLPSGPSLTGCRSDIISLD
Test: pull-down; purified GST or GST-PIAS3 incubated with purified His-METTL10 in 25 mM Tris-HCl pH 8.0, 150 mM NaCl, 4 °C overnight; Glutathione Agarose Resin; eluted with 10 mM reduced glutathione
Conditions: both partners purified

binding result: binds
B1: His-METTL10 (enzyme)
chain: not shown
notes: METTL10 (EEF1AKMT2); also called bacterially expressed METTL10; source: E. coli BL21, purified (Ni-NTA resin)
